Experimental findings from patent US20210130477A1 are described below.

The target in one assay is hAPLP2.mmh (human) (UniProt Q06481). The assay can be described thus: SPR (Biacore) kinetics, mAb captured, hAPLP2.mmh as analyte.
Another assay has as its target hFGFR3b.mmh (human) (UniProt P22607). The assay can be described thus: SPR (Biacore) kinetics, mAb captured, hFGFR3b.mmh as analyte. A general note: Surface plasmon resonance follows binding to a sensor surface in real time, without labels.
A further assay concerns the target hCD63.mmh (human) (UniProt P08962). The assay can be described thus: SPR (Biacore) kinetics, mAb captured, hCD63.mmh as analyte.
Assay [1] addresses human FGFR1c and human KLB co-expressed on HEK293 cells (human) (UniProt P11362). In words: cell-based or functional assay.
In a further assay the target is hKLB.HA.6×His (human) (UniProt Q86Z14). In words: SPR (Biacore), antibody captured on anti-human Fc (REGN2567) CM5 chip, hKLB.HA.6xHis injected, 25 C, 1:1 fit.
The target in another assay is hFGFR1c_V5_6×His (human) (UniProt P11362). The assay can be described thus: SPR (Biacore), antibody captured on anti-human Fc (REGN2567) CM5 chip, hFGFR1c_V5_6xHis injected, 25 C, 1:1 fit.

UniProt P11362, sequence (P11362 22-376): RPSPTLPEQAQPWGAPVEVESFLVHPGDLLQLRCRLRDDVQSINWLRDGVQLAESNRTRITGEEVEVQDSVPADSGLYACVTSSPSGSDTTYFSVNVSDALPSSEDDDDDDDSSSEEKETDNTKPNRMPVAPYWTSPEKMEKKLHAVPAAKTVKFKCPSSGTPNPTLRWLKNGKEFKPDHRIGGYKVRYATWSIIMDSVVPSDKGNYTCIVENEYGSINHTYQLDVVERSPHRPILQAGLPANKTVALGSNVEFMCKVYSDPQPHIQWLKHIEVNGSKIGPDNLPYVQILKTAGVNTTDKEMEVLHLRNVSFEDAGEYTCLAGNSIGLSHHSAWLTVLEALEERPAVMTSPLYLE

As for REGN1945 (antibody), the 100 nM Antigen Bound (RU) was -0.5 RU with hAPLP2.mmh (human), 1.8 RU with hFGFR3b.mmh (human) and 0.5 RU with hCD63.mmh (human).

On to REGN4304 (bispecific antibody), for which, in assay [1], the % Act, SRE-luciferase reporter was determined as 42% and the agonist activity relative to hFGF21, SRE-luciferase reporter amounted to 30%.

The Kd is a measure of binding affinity in units of concentration. By koff is commonly meant the rate constant with which the complex falls apart. The kon is a measure of how fast the partners come together. A higher kon goes with fast association. In the assay with hKLB.HA.6×His (human), REGN4366 (bispecific antibody) registered a 100 nM Antigen Bound (RU) of 411 RU, a Kd of 25.5 nM, a koff of 0.0122 s⁻¹ and a kon of 476000 M⁻¹ s⁻¹. In the assay with hFGFR1c_V5_6×His (human), the 100 nM Antigen Bound (RU) was 50 RU, the dissociation constant (Kd) turned out to be 539 nM, the koff was 0.0247 s⁻¹ and the kon is 45900 M⁻¹ s⁻¹. Further, in assay [1], the % activation normalized against soluble FGF21, SRE-luciferase reporter came to 19% and the agonist activity relative to hFGF21, SRE-luciferase reporter was 30%.

Take “Recombinant human FGF21 with 6×His tag (from UniProt Q9NSA1 29-209) (ligand)”: in assay [1], the % Act, SRE-luciferase reporter came to 100%; the % Activity of (FGF21), SRE-luciferase reporter was 100%; the EC50 (M), SRE-luciferase reporter worked out at 3.4e-09 M.
